Test results reported in US20200079833A1 (AstraZeneca / MedImmune, published 2020).
Starred links: 1 amine or outer side, 2 acyl side, 3 side chain; linkers in the order of their positions; H or OH if unused. Non-standard residues stand in square brackets, D forms with d. Groups on a side chain read outwards from the residue. Primed or numbered codes have the meaning given here. No end group written: not given here. *: point of attachment. γGlu = O=C(O)[C@H](CCC(=O)[*:2])N[*:1]; αMeF = C[C@](N)(Cc1ccccc1)C(=O)O; αMeK = C[C@](N)(CCCCN)C(=O)O; Lauroyl = CCCCCCCCCCCC(=O)*; αMeS = C[C@](N)(CO)C(=O)O; PEG2′ = not defined here; Aib = CC(C)(N)C(=O)O; Ahx = NCCCCCC(=O)O

T1: glucose-dependent insulinotropic peptide (gastric inhibitory polypeptide) receptor (GIPR) (human, UniProt P48546 22-466)
T1 sequence (looked up): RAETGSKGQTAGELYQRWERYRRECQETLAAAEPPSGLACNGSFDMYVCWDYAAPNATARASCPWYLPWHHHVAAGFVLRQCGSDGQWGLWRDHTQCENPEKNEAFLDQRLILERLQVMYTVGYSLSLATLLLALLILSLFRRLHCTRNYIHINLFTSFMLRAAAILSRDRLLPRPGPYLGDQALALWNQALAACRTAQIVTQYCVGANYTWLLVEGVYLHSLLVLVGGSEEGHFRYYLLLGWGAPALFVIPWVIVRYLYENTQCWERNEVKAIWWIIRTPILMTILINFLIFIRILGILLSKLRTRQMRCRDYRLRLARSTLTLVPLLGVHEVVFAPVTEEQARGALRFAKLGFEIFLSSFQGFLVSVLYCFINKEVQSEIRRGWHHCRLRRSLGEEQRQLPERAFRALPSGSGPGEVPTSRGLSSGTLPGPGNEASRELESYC

B1: SEQ ID NO 133 (peptide)
peptide: H[Aib]EGS[αMeF]TSDV[αMeS]S[αMeF]LEGEAAK([Ahx-Ahx-Ahx-Lauroyl])E[αMeF]IA[αMeF]VV[αMeK]GG-NH2
modifications: N-terminus assumed
SMILES: CCCCCCCCCCCC(=O)NCCCCCC(=O)NCCCCCC(=O)NCCCCCC(=O)NCCCC[C@H](NC(=O)[C@H](C)NC(=O)[C@H](C)NC(=O)[C@H](CCC(=O)O)NC(=O)CNC(=O)[C@H](CCC(=O)O)NC(=O)[C@H](CC(C)C)NC(=O)[C@](C)(Cc1ccccc1)NC(=O)[C@H](CO)NC(=O)[C@](C)(CO)NC(=O)[C@@H](NC(=O)[C@H](CC(=O)O)NC(=O)[C@H](CO)NC(=O)[C@@H](NC(=O)[C@](C)(Cc1ccccc1)NC(=O)[C@H](CO)NC(=O)CNC(=O)[C@H](CCC(=O)O)NC(=O)C(C)(C)NC(=O)[C@@H](N)Cc1c[nH]cn1)[C@@H](C)O)C(C)C)C(=O)N[C@@H](CCC(=O)O)C(=O)N[C@@](C)(Cc1ccccc1)C(=O)N[C@H](C(=O)N[C@@H](C)C(=O)N[C@@](C)(Cc1ccccc1)C(=O)N[C@H](C(=O)N[C@H](C(=O)N[C@@](C)(CCCCN)C(=O)NCC(=O)NCC(N)=O)C(C)C)C(C)C)[C@@H](C)CC
B2: SEQ ID NO 132 (peptide)
peptide: H[Aib]EGS[αMeF]TSDV[αMeS]S[αMeF]LEGEAAK([Ahx-Ahx-Lauroyl])E[αMeF]IA[αMeF]VV[αMeK]GG-NH2
modifications: N-terminus assumed
SMILES: CCCCCCCCCCCC(=O)NCCCCCC(=O)NCCCCCC(=O)NCCCC[C@H](NC(=O)[C@H](C)NC(=O)[C@H](C)NC(=O)[C@H](CCC(=O)O)NC(=O)CNC(=O)[C@H](CCC(=O)O)NC(=O)[C@H](CC(C)C)NC(=O)[C@](C)(Cc1ccccc1)NC(=O)[C@H](CO)NC(=O)[C@](C)(CO)NC(=O)[C@@H](NC(=O)[C@H](CC(=O)O)NC(=O)[C@H](CO)NC(=O)[C@@H](NC(=O)[C@](C)(Cc1ccccc1)NC(=O)[C@H](CO)NC(=O)CNC(=O)[C@H](CCC(=O)O)NC(=O)C(C)(C)NC(=O)[C@@H](N)Cc1c[nH]cn1)[C@@H](C)O)C(C)C)C(=O)N[C@@H](CCC(=O)O)C(=O)N[C@@](C)(Cc1ccccc1)C(=O)N[C@H](C(=O)N[C@@H](C)C(=O)N[C@@](C)(Cc1ccccc1)C(=O)N[C@H](C(=O)N[C@H](C(=O)N[C@@](C)(CCCCN)C(=O)NCC(=O)NCC(N)=O)C(C)C)C(C)C)[C@@H](C)CC
B3: SEQ ID NO 129 (peptide)
peptide: H[Aib]EGS[αMeF]TSDV[αMeS]S[αMeF]LEGEAAK([γGlu-γGlu-Lauroyl])E[αMeF]IA[αMeF]VV[αMeK]GG-NH2
modifications: N-terminus assumed
SMILES: CCCCCCCCCCCC(=O)N[C@@H](CCC(=O)N[C@@H](CCC(=O)NCCCC[C@H](NC(=O)[C@H](C)NC(=O)[C@H](C)NC(=O)[C@H](CCC(=O)O)NC(=O)CNC(=O)[C@H](CCC(=O)O)NC(=O)[C@H](CC(C)C)NC(=O)[C@](C)(Cc1ccccc1)NC(=O)[C@H](CO)NC(=O)[C@](C)(CO)NC(=O)[C@@H](NC(=O)[C@H](CC(=O)O)NC(=O)[C@H](CO)NC(=O)[C@@H](NC(=O)[C@](C)(Cc1ccccc1)NC(=O)[C@H](CO)NC(=O)CNC(=O)[C@H](CCC(=O)O)NC(=O)C(C)(C)NC(=O)[C@@H](N)Cc1c[nH]cn1)[C@@H](C)O)C(C)C)C(=O)N[C@@H](CCC(=O)O)C(=O)N[C@@](C)(Cc1ccccc1)C(=O)N[C@H](C(=O)N[C@@H](C)C(=O)N[C@@](C)(Cc1ccccc1)C(=O)N[C@H](C(=O)N[C@H](C(=O)N[C@@](C)(CCCCN)C(=O)NCC(=O)NCC(N)=O)C(C)C)C(C)C)[C@@H](C)CC)C(=O)O)C(=O)O
B4: SEQ ID NO 130 (peptide)
peptide: H[Aib]EGS[αMeF]TSDV[αMeS]S[αMeF]LEGEAAK([γGlu-γGlu-γGlu-Lauroyl])E[αMeF]IA[αMeF]VV[αMeK]GG-NH2
modifications: N-terminus assumed
SMILES: CCCCCCCCCCCC(=O)N[C@@H](CCC(=O)N[C@@H](CCC(=O)N[C@@H](CCC(=O)NCCCC[C@H](NC(=O)[C@H](C)NC(=O)[C@H](C)NC(=O)[C@H](CCC(=O)O)NC(=O)CNC(=O)[C@H](CCC(=O)O)NC(=O)[C@H](CC(C)C)NC(=O)[C@](C)(Cc1ccccc1)NC(=O)[C@H](CO)NC(=O)[C@](C)(CO)NC(=O)[C@@H](NC(=O)[C@H](CC(=O)O)NC(=O)[C@H](CO)NC(=O)[C@@H](NC(=O)[C@](C)(Cc1ccccc1)NC(=O)[C@H](CO)NC(=O)CNC(=O)[C@H](CCC(=O)O)NC(=O)C(C)(C)NC(=O)[C@@H](N)Cc1c[nH]cn1)[C@@H](C)O)C(C)C)C(=O)N[C@@H](CCC(=O)O)C(=O)N[C@@](C)(Cc1ccccc1)C(=O)N[C@H](C(=O)N[C@@H](C)C(=O)N[C@@](C)(Cc1ccccc1)C(=O)N[C@H](C(=O)N[C@H](C(=O)N[C@@](C)(CCCCN)C(=O)NCC(=O)NCC(N)=O)C(C)C)C(C)C)[C@@H](C)CC)C(=O)O)C(=O)O)C(=O)O
B5: SEQ ID NO 131 (peptide)
peptide: H[Aib]EGS[αMeF]TSDV[αMeS]S[αMeF]LEGEAAK([Ahx-Lauroyl])E[αMeF]IA[αMeF]VV[αMeK]GG-NH2
modifications: N-terminus assumed
SMILES: CCCCCCCCCCCC(=O)NCCCCCC(=O)NCCCC[C@H](NC(=O)[C@H](C)NC(=O)[C@H](C)NC(=O)[C@H](CCC(=O)O)NC(=O)CNC(=O)[C@H](CCC(=O)O)NC(=O)[C@H](CC(C)C)NC(=O)[C@](C)(Cc1ccccc1)NC(=O)[C@H](CO)NC(=O)[C@](C)(CO)NC(=O)[C@@H](NC(=O)[C@H](CC(=O)O)NC(=O)[C@H](CO)NC(=O)[C@@H](NC(=O)[C@](C)(Cc1ccccc1)NC(=O)[C@H](CO)NC(=O)CNC(=O)[C@H](CCC(=O)O)NC(=O)C(C)(C)NC(=O)[C@@H](N)Cc1c[nH]cn1)[C@@H](C)O)C(C)C)C(=O)N[C@@H](CCC(=O)O)C(=O)N[C@@](C)(Cc1ccccc1)C(=O)N[C@H](C(=O)N[C@@H](C)C(=O)N[C@@](C)(Cc1ccccc1)C(=O)N[C@H](C(=O)N[C@H](C(=O)N[C@@](C)(CCCCN)C(=O)NCC(=O)NCC(N)=O)C(C)C)C(C)C)[C@@H](C)CC

Molecular target: GLP-1 receptor (GLP-1R) (human, UniProt P43220 24-463)
Assay: cell-based or functional assay

| cAMP Mean pM GLP-1R | cAMP Primary assay EC50 GLP-1R n1 | cAMP Primary assay EC50 GLP-1R n2 | Binder |
| --- | --- | --- | --- |
| 29.4 pM | 0.034 nM | 0.025 nM | B1 |
| 9 pM | 0.011 nM | 0.0071 nM | B2 |
| 11.5 pM | 0.012 nM | 0.011 nM | B3 |
| 14.4 pM | 0.016 nM | 0.013 nM | B4 |
| 11.7 pM | 0.014 nM | 0.0099 nM | B5 |
| 3 pM | 0.0035 nM | 0.0025 nM | H[Aib]EGS[αMeF]TSDV[αMeS]S[αMeF]LEGEAAK([PEG2′-PEG2′-PEG2′-Lauroyl])E[αMeF]IA[αMeF]VV[αMeK]GG-NH2 [SEQ ID NO 136] |
| 5 pM | 0.0054 nM | 0.0045 nM | H[Aib]EGS[αMeF]TSDV[αMeS]S[αMeF]LEGEAAK([PEG2′-PEG2′-Lauroyl])E[αMeF]IA[αMeF]VV[αMeK]GG-NH2 [SEQ ID NO 135] |
| 6 pM | 0.007 nM | 0.0049 nM | H[Aib]EGS[αMeF]TSDV[αMeS]S[αMeF]LEGEAAK([PEG2′-Lauroyl])E[αMeF]IA[αMeF]VV[αMeK]GG-NH2 [SEQ ID NO 134] |

Molecular target: glucagon receptor (GCGR) (human, UniProt P47871 26-477)
Assay: cell-based or functional assay

Sequence of glucagon receptor (GCGR) (P47871 26-477): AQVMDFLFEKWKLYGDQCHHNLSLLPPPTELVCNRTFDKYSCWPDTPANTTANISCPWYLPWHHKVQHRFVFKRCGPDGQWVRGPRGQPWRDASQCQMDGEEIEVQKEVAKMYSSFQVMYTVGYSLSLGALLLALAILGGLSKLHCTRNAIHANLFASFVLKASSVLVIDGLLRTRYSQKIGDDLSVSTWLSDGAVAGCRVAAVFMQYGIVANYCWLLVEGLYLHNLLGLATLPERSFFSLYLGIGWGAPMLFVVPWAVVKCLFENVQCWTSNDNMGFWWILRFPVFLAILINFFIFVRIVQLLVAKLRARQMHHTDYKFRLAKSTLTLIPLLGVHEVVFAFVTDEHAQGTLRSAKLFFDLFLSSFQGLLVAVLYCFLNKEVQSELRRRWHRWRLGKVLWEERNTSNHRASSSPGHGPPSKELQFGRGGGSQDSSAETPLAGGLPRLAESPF

| cAMP Primary assay EC50 Gluc-R | cAMP Primary assay EC50 Gluc-R (2nd) | Binder |
| --- | --- | --- |
| 27 nM | 27 nM | B1 |
| 28 nM | 28 nM | B2 |
| 27 nM | 27 nM | B3 |
| 26 nM | 26 nM | B4 |
| 29 nM | 29 nM | B5 |
| 26 nM | 26 nM | H[Aib]EGS[αMeF]TSDV[αMeS]S[αMeF]LEGEAAK([PEG2′-PEG2′-PEG2′-Lauroyl])E[αMeF]IA[αMeF]VV[αMeK]GG-NH2 [SEQ ID NO 136] |
| 27 nM | 27 nM | H[Aib]EGS[αMeF]TSDV[αMeS]S[αMeF]LEGEAAK([PEG2′-PEG2′-Lauroyl])E[αMeF]IA[αMeF]VV[αMeK]GG-NH2 [SEQ ID NO 135] |
| 28 nM | 28 nM | H[Aib]EGS[αMeF]TSDV[αMeS]S[αMeF]LEGEAAK([PEG2′-Lauroyl])E[αMeF]IA[αMeF]VV[αMeK]GG-NH2 [SEQ ID NO 134] |

Molecular target: T1, glucose-dependent insulinotropic …
Assay: cell-based or functional assay

| cAMP Primary assay EC50 GIP-R | cAMP Primary assay EC50 GIP-R (2nd) | Binder |
| --- | --- | --- |
| 27 nM | 27 nM | B1 |
| 28 nM | 28 nM | B2 |
| 27 nM | 27 nM | B3 |
| 26 nM | 26 nM | B4 |
| 29 nM | 29 nM | B5 |
| 26 nM | 26 nM | H[Aib]EGS[αMeF]TSDV[αMeS]S[αMeF]LEGEAAK([PEG2′-PEG2′-PEG2′-Lauroyl])E[αMeF]IA[αMeF]VV[αMeK]GG-NH2 [SEQ ID NO 136] |
| 27 nM | 27 nM | H[Aib]EGS[αMeF]TSDV[αMeS]S[αMeF]LEGEAAK([PEG2′-PEG2′-Lauroyl])E[αMeF]IA[αMeF]VV[αMeK]GG-NH2 [SEQ ID NO 135] |
| 28 nM | 28 nM | H[Aib]EGS[αMeF]TSDV[αMeS]S[αMeF]LEGEAAK([PEG2′-Lauroyl])E[αMeF]IA[αMeF]VV[αMeK]GG-NH2 [SEQ ID NO 134] |
